Data: patent publication EP0651797B1

Tests used:
[1] = target: human B7 antigen on cells (human) (UniProt P33681); experiment: cell-based or functional assay
[2] = target: human B7 antigen on cells (human) (UniProt P33681); experiment: FACS staining of highly enriched tonsillar B cells, Donor 1
[3] = target: human B7 antigen on cells (human) (UniProt P33681); experiment: FACS staining of highly enriched tonsillar B cells, Donor 2
[4] = target: human B7 antigen on cells (human) (UniProt P33681); experiment: FACS of tonsillar B cells cultured for 5 days with immobilized anti-(IgM) antibodies and IL-2
[5] = target: human CD40 on cells (human) (UniProt P25942); experiment: FACS staining of highly enriched tonsillar B cells
Chain of UniProt P25942 (P25942 21-277): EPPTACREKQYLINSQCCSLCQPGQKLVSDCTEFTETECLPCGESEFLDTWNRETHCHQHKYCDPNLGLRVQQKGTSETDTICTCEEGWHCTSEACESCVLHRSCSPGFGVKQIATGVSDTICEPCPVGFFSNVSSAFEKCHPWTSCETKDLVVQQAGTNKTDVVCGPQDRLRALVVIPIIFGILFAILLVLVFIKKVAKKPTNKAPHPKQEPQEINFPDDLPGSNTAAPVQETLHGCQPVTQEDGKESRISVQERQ

[6] = target: CD3 on cells of tonsillar B cell preparations (human) (UniProt P07766); experiment: FACS staining of highly enriched tonsillar B cells
[7] = target: CD3 on cells of tonsillar B cell preparations (human) (UniProt P07766); experiment: FACS staining of highly enriched tonsillar B cells, Donor 1
[8] = target: CD3 on cells of tonsillar B cell preparations (human) (UniProt P07766); experiment: FACS staining of highly enriched tonsillar B cells, Donor 2
[9] = target: LeuM3 on cells of tonsillar B cell preparations (human) (UniProt P08571); experiment: FACS staining of highly enriched tonsillar B cells
Chain of UniProt P08571 (P08571 20-345): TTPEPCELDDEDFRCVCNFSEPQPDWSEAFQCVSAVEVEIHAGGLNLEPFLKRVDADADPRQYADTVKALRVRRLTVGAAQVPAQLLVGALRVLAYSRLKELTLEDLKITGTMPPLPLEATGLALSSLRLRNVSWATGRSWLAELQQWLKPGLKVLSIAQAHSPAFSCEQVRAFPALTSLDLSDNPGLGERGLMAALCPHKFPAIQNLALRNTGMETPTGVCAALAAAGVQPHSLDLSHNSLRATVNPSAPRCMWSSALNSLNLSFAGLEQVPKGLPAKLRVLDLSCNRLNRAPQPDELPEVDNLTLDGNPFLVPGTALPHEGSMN

Chain of UniProt P33681 (P33681 35-288): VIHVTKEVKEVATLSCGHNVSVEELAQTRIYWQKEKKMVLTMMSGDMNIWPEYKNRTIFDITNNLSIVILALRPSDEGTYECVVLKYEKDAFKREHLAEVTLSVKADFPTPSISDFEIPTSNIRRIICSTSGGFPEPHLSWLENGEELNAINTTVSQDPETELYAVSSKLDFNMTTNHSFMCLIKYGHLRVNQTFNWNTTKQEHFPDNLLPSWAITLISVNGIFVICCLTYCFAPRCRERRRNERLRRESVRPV

Substance: anti-B7 monoclonal antibody B7-24
- T-cell proliferation in a secondary MLC; B7-24 0.025 µg/ml, CsA 3 x 10^-7 M (CPM (by the footnote)) [1]: 6
- T-cell proliferation in a secondary MLC; B7-24 0.025 µg/ml, CsA 6 x 10^-7 M (CPM (by the footnote)) [1]: 6
- T-cell proliferation in a secondary MLC; B7-24 0.025 µg/ml, CsA 10^-7 M (CPM (by the footnote)) [1]: 6
- T-cell proliferation in a secondary MLC; B7-24 0.025 µg/ml, no CsA (CPM (by the footnote)) [1]: 47
- T-cell proliferation in a secondary MLC; B7-24 0.25 µg/ml, CsA 3 x 10^-7 M (CPM (by the footnote)) [1]: 2
- T-cell proliferation in a secondary MLC; B7-24 0.25 µg/ml, CsA 6 x 10^-7 M (CPM (by the footnote)) [1]: 3
- T-cell proliferation in a secondary MLC; B7-24 0.25 µg/ml, CsA 10^-7 M (CPM (by the footnote)) [1]: 3
- T-cell proliferation in a secondary MLC; B7-24 0.25 µg/ml, no CsA (CPM (by the footnote)) [1]: 33
- T-cell proliferation in a secondary MLC; B7-24 2.5 µg/ml, CsA 3 x 10^-7 M (CPM (by the footnote)) [1]: 3
- T-cell proliferation in a secondary MLC; B7-24 2.5 µg/ml, CsA 6 x 10^-7 M (CPM (by the footnote)) [1]: 3
- T-cell proliferation in a secondary MLC; B7-24 2.5 µg/ml, CsA 10^-7 M (CPM (by the footnote)) [1]: 3
- T-cell proliferation in a secondary MLC; B7-24 2.5 µg/ml, no CsA (CPM (by the footnote)) [1]: 40
- T-cell proliferation in secondary MLC; B7-24 0.025 µg/ml, CsA 3 x 10^-6M [1]: 939 CPM
- T-cell proliferation in secondary MLC; B7-24 0.025 µg/ml, CsA 3 x 10^-7M [1]: 1570 CPM
- T-cell proliferation in secondary MLC; B7-24 0.025 µg/ml, CsA 6 x 10^-6M [1]: 897 CPM
- T-cell proliferation in secondary MLC; B7-24 0.025 µg/ml, CsA 6 x 10^-7M [1]: 1590 CPM
- T-cell proliferation in secondary MLC; B7-24 0.025 µg/ml, CsA 10^-7M [1]: 2820 CPM
- T-cell proliferation in secondary MLC; B7-24 0.025 µg/ml, no CsA [1]: 29400 CPM
- T-cell proliferation in secondary MLC; B7-24 0.25 µg/ml, CsA 3 x 10^-6M [1]: 545 CPM
- T-cell proliferation in secondary MLC; B7-24 0.25 µg/ml, CsA 3 x 10^-7M [1]: 559 CPM
- T-cell proliferation in secondary MLC; B7-24 0.25 µg/ml, CsA 6 x 10^-6M [1]: 553 CPM
- T-cell proliferation in secondary MLC; B7-24 0.25 µg/ml, CsA 6 x 10^-7M [1]: 788 CPM
- T-cell proliferation in secondary MLC; B7-24 0.25 µg/ml, CsA 10^-6M [1]: 601 CPM
- T-cell proliferation in secondary MLC; B7-24 0.25 µg/ml, CsA 10^-7M [1]: 882 CPM
- T-cell proliferation in secondary MLC; B7-24 0.25 µg/ml, no CsA [1]: 20800 CPM
- T-cell proliferation in secondary MLC; B7-24 2.5 µg/ml, CsA 3 x 10^-6M [1]: 609 CPM
- T-cell proliferation in secondary MLC; B7-24 2.5 µg/ml, CsA 3 x 10^-7M [1]: 697 CPM
- T-cell proliferation in secondary MLC; B7-24 2.5 µg/ml, CsA 6 x 10^-6M [1]: 971 CPM
- T-cell proliferation in secondary MLC; B7-24 2.5 µg/ml, CsA 6 x 10^-7M [1]: 790 CPM
- T-cell proliferation in secondary MLC; B7-24 2.5 µg/ml, CsA 10^-6M [1]: 601 CPM
- T-cell proliferation in secondary MLC; B7-24 2.5 µg/ml, CsA 10^-7M [1]: 1160 CPM
- T-cell proliferation in secondary MLC; B7-24 2.5 µg/ml, no CsA [1]: 25200 CPM
- % of Positive Cells [2]: 12.6%
- % of Positive Cells [3]: 16.8%
- percentage of cells positive [4]: 25 percent

Substance: anti-(CD40) monoclonal antibody G28.5
- % of Positive Cells [5]: 92.1%

Substance: anti-(CD3) monoclonal antibody OKT3
- % of Positive Cells [6]: 2.1%
- % of Positive Cells [7]: 8%
- % of Positive Cells [8]: 2.1%

Substance: anti-(LeuM3) monoclonal antibody
- % of Positive Cells [9]: 2.5%
